Results on 15 sequences are retold here after the supplement of paper PMC9170038.

For this series, the system named is MS2 coat protein. The experiment in a line: apparent KD of MS2 coat protein; designed switch direction (-1 OFF switch, 1 ON switch): 1; higher = weaker reporter binding. Summed up:
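For each design, the apparent KD is the median over clusters of curves fitted to normalised cluster fluorescence. Clusters held RNA switches with common flanks, transcribed on Illumina chips by stalled E. coli RNA polymerase. These were titrated with SNAP-549-labelled MS2 coat protein, doubling from 0.7 or 1.5 nM to 3 µM, without input, with 200 uM small-molecule ligand, or with an oligonucleotide input.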

The mark [1] stands for this setting: input ligand: microRNA oligo, concentration not stated.
Where [2] appears, read: Eterna round: R95, input ligand: FMN 200 uM.
Where [3] appears, read: Eterna round: R95, input ligand: microRNA oligo, concentration not stated.
The mark [4] stands for this setting: Eterna round: R95, input ligand: none.

Consider “AAAAAACAUGAGGAUCACCCAUGUAAAAAAAUGGGAGGAUAUACAAAAACGAAAGUCAAAGUAGAAGGCCUGAAAA [same state 5] (Eterna round: R96, puzzle: Same State 1)”, for which the “apparent KD of MS2 coat protein” value under setting [1] stood at 78.6 nM.

As to “AAAAUGCGGGAAGGAUAUGGGAAAGGAAGUGUACCAGAAGGUCUCGCGGCCAAGGACAUGAGGAUCACCCAUGUGAACGCCCGA [PowerStrip SSNG 1.9] (Eterna round: R96, puzzle: Same State NG 1)”, the “apparent KD of MS2 coat protein” value by setting is: (input ligand: FMN 200 uM) 98.1 nM; under setting [1], 41 nM; (input ligand: none) 59.1 nM.

As to “AAACCACAUGAGGAUCACCCAUGUAAAAAUAUGGGAGGAUAUCGGAAUAAAAUAAAGAAACGAGAAGGCCUAAAAA [59%, Flamingo, 5] (Eterna round: R96, puzzle: Same State 1)”, the “apparent KD of MS2 coat protein” value by setting is: (input ligand: FMN 200 uM) 26.6 nM; under setting [1], 212 nM; (input ligand: none) 256 nM.

For the sequence “AAAGAAAAACUAGAGGAUAUCCGAGUGGUAACAUGAGGAUCACCCAUGUGAUGAAAGGAACAUGAGGAGAAGGCUAGAAGAAAAA [JL Nando mod 8] (Eterna round: R96, puzzle: Same State 2)”, the “apparent KD of MS2 coat protein” value reads like this: (input ligand: FMN 200 uM) 20.6 nM; under setting [1], 47.6 nM; (input ligand: none) 56.5 nM.

For “AAAGACAUGGUGCAGGAUAUAUUAAUAGUCACAUGAGGAUCACCCAUGUUCAGAUAUCUGAACGAGUAGAAGGGCGAUGAAAAAA [SameState2 Malc#5] (Eterna round: R96, puzzle: Same State 2)”, the “apparent KD of MS2 coat protein” value was found to be 530 nM (input ligand: FMN 200 uM), 28.7 nM under setting [1] and 204 nM (input ligand: none).

Regarding “AAAGUGGGCUUAUUUGGAUUCUCGUCUGGACAUGAGGAUCACCCAUGUAGGCGCUUGGUCUGAGACUAAGCAGCCGA [Didiinso] (Eterna round: R96, puzzle: Sensor for hsa-mir-208a)”, the “apparent KD of MS2 coat protein” value was found to be 113 nM (input ligand: FMN 200 uM), 28.5 nM under setting [1] and 75.3 nM (input ligand: none).

Take “AAAUAAAACACAGGAUAUGCAGCCAAUACGGCGGCAGAAGGGUGAGACAUGAGGAUCACCCAUGUACACGUCCCACAGACGUGC [Mabege] (Eterna round: R96, puzzle: Same State NG 1)”: the “apparent KD of MS2 coat protein” value is, setting by setting: (input ligand: FMN 200 uM) 426 nM; under setting [1], 89.9 nM; (input ligand: none) 119 nM.

For “AACAAACAUGAGGAUCACCCAUGUACAGACCUGGACAUUGUCGAGGAUAUCAGCAAGAAAACAGCUGAGAAGGUGACGCCAGAG [Eternabot solution 6] (Eterna round: R96, puzzle: Same State NG 3)”, the “apparent KD of MS2 coat protein” value reads like this: (input ligand: FMN 200 uM) 30.8 nM; under setting [1], 52.2 nM; (input ligand: none) 70.3 nM.

For the sequence “AACAAUCUAUCUGAGGAUAUCAUGAGAAUAACAUGAGGAUCACCCAUGUGCAGGAAAACUGCAUAUGAGAAGGCAGAUAGAUUGG [Mat - Same State 2 - Mod - D21] (puzzle: Same State 2)”, the “apparent KD of MS2 coat protein” value was 78.6 nM under setting [2], 546 nM under setting [3] and 2730 nM under setting [4].

For “AACAAUCUAUCUGAGGAUAUCAUGUCAAAGACAUGAGGAUCACCCAUGUACCAGGAAACUGGAUAUGAGAAGGCAGAUAGAUUGA [SS2: 1119] (Eterna round: R96, puzzle: Same State 2)”, the “apparent KD of MS2 coat protein” value by setting is: (input ligand: FMN 200 uM) 16.6 nM; under setting [1], 80 nM; (input ligand: none) 162 nM.

For “AACAAUCUAUCUGAGGAUAUCUUGAAAUAAACAUGAGGAUCACCCAUGUGCAGGAAAACUGCAUAUGAGAAGGCAGAUAGAUUGA [salish99_ss2_r3_028] (puzzle: Same State 2)”, the “apparent KD of MS2 coat protein” value under setting [2] came out at 14.5 nM, the “apparent KD of MS2 coat protein” value under setting [3] stood at 124 nM and the “apparent KD of MS2 coat protein” value under setting [4] was found to be 148 nM.

As to “AACCUAGGCAGAGGAUAUCUGGACGCGCGCACCAGAGAAGGCUGCGAGCCCUGAAUAUACAUGAGGAUCACCCAUGUCCCGCAC [Eternabot solution 15] (Eterna round: R96, puzzle: Same State NG 1)”, the “apparent KD of MS2 coat protein” value runs as follows: (input ligand: FMN 200 uM) 31.2 nM; under setting [1], 27.8 nM; (input ligand: none) 26.5 nM.

Consider “AACUAUCUAUCUCAGGAUAUCAUGUCAAAGACAUGAGGAUCACCCAUGUACCAGGAAACUGGUUAUGAGAAGGGAGAUAGAUAGU [Mat - Same State 2 - Mod - D41] (puzzle: Same State 2)”, for which the “apparent KD of MS2 coat protein” value reads like this: under setting [2], 127 nM; under setting [3], 263 nM; under setting [4], 602 nM.

As for “AACUAUCUAUCUGAGGAUAUCAUGAAAUAAACAUGAGGAUCACCCAUGUGCAGGAAAACUGCAUAUGAGAAGGCAGAUAGAUUGA [salish99_ss2_r3_021] (puzzle: Same State 2)”, the “apparent KD of MS2 coat protein” value runs as follows: under setting [2], 66.6 nM; under setting [3], 1250 nM; under setting [4], 2000 nM.

As for “AAGAAACAUGAGGAUCACCCAUGUAAUAAUAUGGGAGGAUAUACAAGGACAAUAGUCAAGGUAGAAGGCCUAAGAA [Mat - Same State 1 - Meechl mod - D142] (Eterna round: R96, puzzle: Same State 1)”, the “apparent KD of MS2 coat protein” value under setting [1] came out at 123 nM.
